Publication PMC6918676

Target: full length Trk-A with a C-terminal (GGS)5 linker and eYFP or mTurquoise (human) (UniProt P04629)
Test: FRET or BRET

Sequence of full length Trk-A with a C-terminal (GGS)5 linker and eYFP or mTurquoise (P04629 33-796): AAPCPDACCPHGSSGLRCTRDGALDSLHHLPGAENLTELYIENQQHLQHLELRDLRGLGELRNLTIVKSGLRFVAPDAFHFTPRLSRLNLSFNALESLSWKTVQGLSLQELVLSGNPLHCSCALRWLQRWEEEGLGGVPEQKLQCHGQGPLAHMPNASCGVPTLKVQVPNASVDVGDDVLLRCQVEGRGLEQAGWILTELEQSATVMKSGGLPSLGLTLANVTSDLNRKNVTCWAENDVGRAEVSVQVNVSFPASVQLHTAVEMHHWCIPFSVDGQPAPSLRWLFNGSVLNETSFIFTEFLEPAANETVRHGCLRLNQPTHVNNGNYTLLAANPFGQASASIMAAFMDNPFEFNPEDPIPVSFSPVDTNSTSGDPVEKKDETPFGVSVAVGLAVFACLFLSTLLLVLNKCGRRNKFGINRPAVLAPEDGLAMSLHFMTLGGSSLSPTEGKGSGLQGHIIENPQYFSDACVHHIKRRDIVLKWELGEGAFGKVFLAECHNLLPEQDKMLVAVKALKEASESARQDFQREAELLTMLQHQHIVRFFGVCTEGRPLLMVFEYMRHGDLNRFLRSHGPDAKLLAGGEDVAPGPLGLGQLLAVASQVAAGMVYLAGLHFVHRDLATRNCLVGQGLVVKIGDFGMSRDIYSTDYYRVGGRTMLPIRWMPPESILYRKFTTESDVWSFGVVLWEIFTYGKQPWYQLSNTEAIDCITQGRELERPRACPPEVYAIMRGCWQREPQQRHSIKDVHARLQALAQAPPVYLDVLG

full length Trk-A with a C-terminal (GGS)5 linker and eYFP or mTurquoise (from UniProt P04629 33-796) (receptor)
stoichiometry N: 2
